Laboratory results published in publication doi:10.1101/2022.10.18.512691.

Legend:
[1] = molecular target: APS-kinase from Methanothermococcus thermolithotrophicus (Methanothermococcus thermolithotrophicus); experiment: crystal structure
[2] = molecular target: ATP-sulfurylase from Methanothermococcus thermolithotrophicus (Methanothermococcus thermolithotrophicus); experiment: crystal structure
[3] = molecular target: ATP-sulfurylase from Methanothermococcus thermolithotrophicus (Methanothermococcus thermolithotrophicus); experiment: SEC

Substance | stoichiometry N [1] | stoichiometry N [2] | stoichiometry N [3]
APS-kinase from Methanothermococcus thermolithotrophicus (enzyme) | 2 | – | –
ATP-sulfurylase from Methanothermococcus thermolithotrophicus (enzyme) | – | 2 | 2
